Data reported in patent US20210355237A1 (RIKEN, published 2021).

Experiments:
[1] = target: heated (56° C., 15 minutes) Der f 2-IgE antibody in clinical-case serum of allergic dogs (canine); experiment: Der f 2-IgE ELISA, serum after heating, specimen containing pathogenic IgE antibody
[2] = target: feline serum IgE antibody of allergy cases, after heating (feline); experiment: IgE ELISA of feline serum on immobilised Dermatophagoides Farinae allergen, 6C12 detection; Allergy case, Cat 3
[3] = target: non-heated Der f 2-IgE antibody in experimental canine serum (beagles sensitized with Der f 2 and alum) (canine); experiment: Der f 2-IgE ELISA, serum before heating, specimen containing non-pathogenic IgE antibody
[4] = target: feline serum IgE antibody of allergy cases, after heating (feline); experiment: IgE ELISA of feline serum on immobilised Dermatophagoides Farinae allergen, 6C12 detection; Allergy case, Cat 2
[5] = target: feline serum IgE antibody of allergy cases, after heating (feline); experiment: IgE ELISA of feline serum on immobilised Dermatophagoides Farinae allergen, 6C12 detection; Allergy case, Cat 1
[6] = target: heated (56° C.) Der f 2-IgE antibody in experimental canine serum (canine); experiment: Der f 2-IgE ELISA, serum after heating, specimen containing non-pathogenic IgE antibody
[7] = target: non-heated Der f 2-IgE antibody in clinical-case serum of allergic dogs (canine); experiment: Der f 2-IgE ELISA, serum before heating, specimen containing pathogenic IgE antibody
[8] = target: T1, Peptide (-4C) with 6×His tag and GS linker (canine); experiment: ELISA, His-tagged peptide captured by anti-His tag antibody, biotinylated 6C12
T1 construct: 4 amino acids deleted from the C terminal
T1 peptide: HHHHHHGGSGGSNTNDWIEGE

[9] = target: T2, Peptide (-2C) with 6×His tag and GS linker (canine); experiment: as above
T2 construct: 2 amino acids deleted from the C terminal
T2 peptide: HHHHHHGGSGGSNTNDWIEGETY

[10] = target: T3, Peptide (-5C) with 6×His tag and GS linker (canine); experiment: as above
T3 construct: 5 amino acids deleted from the C terminal
T3 peptide: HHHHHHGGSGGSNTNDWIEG

[11] = target: T4, Peptide (-4) with 6×His tag and GS linker (canine); experiment: as above
T4 construct: 4 amino acids deleted from the N terminal of Peptide-full
T4 peptide: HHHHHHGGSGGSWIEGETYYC

[12] = target: T5, Peptide (-1C) with 6×His tag and GS linker (canine); experiment: as above
T5 construct: 1 amino acid deleted from the C terminal
T5 peptide: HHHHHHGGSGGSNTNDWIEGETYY

[13] = target: T6, Peptide (-3C) with 6×His tag and GS linker (canine); experiment: as above
T6 construct: 3 amino acids deleted from the C terminal
T6 peptide: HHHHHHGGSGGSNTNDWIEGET

B1: 6C12 (monoclonal antibody produced from hybridoma clone 6C12, mouse IgG1κ) (antibody, V domains shown)
VH: EVQLVESGGGLVQPKGSLKLSCAASGFNFNAYVMNWVRQAPGKGLEWVSRIRSKSNNYATYYADSVKDRFTISRDDSESMLYLQMNNLKTEDTAMYYCVRPDYYGGSPFAYWGQGTLVTVSA
VL: QIVLTQSPAIMSASPGEKVTISCSASSSVSYMYWYQQKPGSSPKPWIYRTSNLASGVPARFGGSGSGTSYSLTISSMEAEDAATYYCQQYHSYPPTFGVGTKLELK
notes: Mouse IgG1κ purified from ascites on Protein G; used biotin-labelled (ELISA, flow cytometry) or FITC-labelled (RBL-2H3); 129-174); also called 6C12 antibody; purified 6C12
Der f 2-IgE concentration detected by 6C12 [1]: 848 ng/mL
IgE level detected by 6C12, After heating [2]: 91 ng/mL
Der f 2-IgE concentration detected by 6C12 [3]: 1050 ng/mL
IgE level detected by 6C12, After heating [4]: 34 ng/mL
IgE level detected by 6C12, After heating [5]: 89 ng/mL
Der f 2-IgE concentration detected by 6C12 [6]: 1050 ng/mL
Der f 2-IgE concentration detected by 6C12 [7]: 0 ng/mL
binding result [8]: no binding
binding result [9]: no binding
binding result [10]: no binding
binding result [11]: no binding
binding result [12]: no binding
binding result [13]: no binding
